From US20250163449A1, “HERBICIDE-TOLERANT GENES AND METHOD FOR USING SAME” (QINGDAO KINGAGROOT CHEMICAL COMPOUND CO., LTD., priority 2022, published 2025)

B1: SEQ ID NO: 10 (protein)
chain: MHAALSPLSQRFERIAVQPLTGVLGAEITGVDLREPLDDSTWNEILDAFHTYQVIYFPGQAITNEQHIAFSRRFGPVDPVPHLKSIEGYPEVQMIRREANESGRVIGDDWHTDSTFLDAPPAAVVMRAIDVPEHGGDTGFLSMYTAWETLSPTMQATIEGLNVVHSATRVFGSLYQAQNRRFSNTSMKVMDVDAGDRETVHPLVVTHPGSGRKGLYVNQVYCQRIEGMTDAESKPLLQFLYEHATRFDFTCRVRWKKDQVLVWDNLCTMHRAVPDYAGKFRYLTRTTVGGVRPAR
B2: SEQ ID NO: 66 (protein)
chain: MHAALSPLSQRFERIAVQPLTGVLGAEITGVDLREPLDDSTWNEILDAFHTYQVIYFPGQAITNEQHIAFSRRFGPVDPVPHLKSIEGYPEVQMIRREANESGGVIGDEWHTDSTFLDAPPAAVVMRAIDVPEHGGDTGFLSMYTAWETLSPTMQATIEGLNVVHSATRVFGSLYQAQNRRWSNTSLKVMDVDAGDRETVHPLVVTHPGSGRKGLYVNQVYCQRIEGMTDAESKPLLQFLYEHATRFDFTCRVRWKKDQVLVWDNLCTMHRAVPDYAGKFRYLTRTTVGGVRPAR
B3: SEQ ID NO: 26 (protein)
chain: MHAALSPLSQRFERIAVQPLTGVLGAEITGVDLREPLDDSTWNEILDAFHTYQVIYFPGQAITNEQHIAFSRRFGPVDPVPHLKSIEGYPEVQMIRREANESGLVIGDDWHTDSTFLDAPPAAVVMRAIDVPEHGGDTGFLSMYTAWETLSPTMQATIEGLNVVHSATRVFGSLYQAQNRRFSNTSLKVMDVDAGDRETVHPLVVTHPGSGRKGLYVNQVYCQRIEGMTDAESKPLLQFLYEHATRFDFTCRVRWKKDQVLVWDNLCTMHRAVPDYAGKFRYLTRTTVGGVRPAR
B4: SEQ ID NO: 62 (protein)
chain: MHAALSPLSQRFERIAVQPLTGVLGAEITGVDLREPLDDSTWNEILDAFHTYQVIYFPGQAITNEQHIAFSRRFGPVDPVPHLKSIEGYPEVQMIRREANESGGVIGCDWHTDSTFLDAPPAAVVMRAIDVPEHGGDTGFLSMYTAWETLSPTMQATIEGLNVVHSATRVFGSLYQAQNRRWSNTSLKVMDVDAGDRETVHPLVVTHPGSGRKGLYVNQVYCQRIEGMTDAESKPLLQFLYEHATRFDFTCRVRWKKDQVLVWDNLCTMHRAVPDYAGKFRYLTRTTVGGVRPAR
B5: SEQ ID NO: 22 (protein)
chain: MHAALSPLSQRFERIAVQPLTGVLGAEITGVDLREPLDDSTWNEILDAFHTYQVIYFPGQAITNEQHIAFSRRFGPVDPVPHLKSIEGYPEVQMIRREANESGDVIGDDWHTDSTFLDAPPAAVVMRAIDVPEHGGDTGFLSMYTAWETLSPTMQATIEGLNVVHSATRVFGSLYQAQNRRFSNTSLKVMDVDAGDRETVHPLVVTHPGSGRKGLYVNQVYCQRIEGMTDAESKPLLQFLYEHATRFDFTCRVRWKKDQVLVWDNLCTMHRAVPDYAGKFRYLTRTTVGGVRPAR
B6: SEQ ID NO: 74 (protein)
chain: MHAALSPLSQRFERIAVQPLTGVLGAEITGVDLREPLDDSTWNEILDAFHTYQVIYFPGQAITNEQHIAFSRRFGPVDPVPHLKSIEGYPEVQMIRREANESGGVIGDDWHTDSTFLDAPPAAVVMRAIDVPEHGGDTGFLSMYTAWETLSPTMQATIEGLNVVHSATRVFGSLYQAQNRRWSNTSLKVMDVDAGDRETVHPLVVTHPGSGRKGLYVNPVYCQRIEGMTDAESKPLLQFLYEHATRFDFTCRVRWKKDQVLVWDNLCTMHRAVPDYAGKFRYLTRTTVGGVRPAR
B7: SEQ ID NO: 18 (protein)
chain: MHAALSPLSQRFERIAVQPLTGVLGAEITGVDLREPLDDSTWNEILDAFHTYQVIYFPGQAITNEQHIAFSRRFGPVDPVPHLKSIEGYPEVQMIRREANESGAVIGDDWHTDSTFLDAPPAAVVMRAIDVPEHGGDTGFLSMYTAWETLSPTMQATIEGLNVVHSATRVFGSLYQAQNRRFSNTSLKVMDVDAGDRETVHPLVVTHPGSGRKGLYVNQVYCQRIEGMTDAESKPLLQFLYEHATRFDFTCRVRWKKDQVLVWDNLCTMHRAVPDYAGKFRYLTRTTVGGVRPAR
B8: SEQ ID NO: 34 (protein)
chain: MHAALSPLSQRFERIAVQPLTGVLGAEITGVDLREPLDDSTWNEILDAFHTYQVIYFPGQAITNEQHIAFSRRFGPVDPVPHLKSIEGYPEVQMIRREANESLRVIGDDWHTDSTFLDAPPAAVVMRAIDVPEHGGDTGFLSMYTAWETLSPTMQATIEGLNVVHSATRVFGSLYQAQNRRFSNTSLKVMDVDAGDRETVHPLVVTHPGSGRKGLYVNQVYCQRIEGMTDAESKPLLQFLYEHATRFDFTCRVRWKKDQVLVWDNLCTMHRAVPDYAGKFRYLTRTTVGGVRPAR
B9: SEQ ID NO: 30 (protein)
chain: MHAALSPLSQRFERIAVQPLTGVLGAEITGVDLREPLDDSTWNEILDAFHTYQVIYFPGQAITNEQHIAFSRRFGPVDPVPHLKSIEGYPEVQMIRREANESGRVIGDDWHTDSTFLDAPPAAVVMRAIDVPEHGGDTGFLSMYTAWETLSPTMQATIEGLNVVHSATRVFGSLYQAQNRRWSNTSLKVMDVDAGDRETVHPLVVTHPGSGRKGLYVNQVYCQRIEGMTDAESKPLLQFLYEHATRFDFTCRVRWKKDQVLVWDNLCTMHRAVPDYAGKFRYLTRTTVGGVRPAR
B10: SEQ ID NO: 70 (protein)
chain: MHAALSPLSQRFERIAVQPLTGVLGAEITGVDLREPLDDSTWNEILDAFHTYQVIYFPGQAITNEQHIAFSRRFGPVDPVPHLKSIEGYPEVQMIRREANESGGVIGDDWHTDSTFLDAPPAAVVMRAIDVPEHGGDTGFLSMYTAWETLSPTMQATIEGLNVVHSATRVFGSLYQAQNRRWSNTSLKVMDVDAGDRETVHPLVVTHPGSGRKGLYVNCVYCQRIEGMTDAESKPLLQFLYEHATRFDFTCRVRWKKDQVLVWDNLCTMHRAVPDYAGKFRYLTRTTVGGVRPAR
B11: SEQ ID NO: 14 (protein)
chain: MHAALSPLSQRFERIAVQPLTGVLGAEITGVDLREPLDDSTWNEILDAFHTYQVIYFPGQAITNEQHIAFSRRFGPVDPVPHLKSIEGYPEVQMIRREANESGRVIGDDWHTDSTFLDAPPAAVVMRAIDVPEHGGDTGFLSMYTAWETLSPTMQATIEGLNVVHSATRVFGSLYQAQNRRFSNTSIKVMDVDAGDRETVHPLVVTHPGSGRKGLYVNQVYCQRIEGMTDAESKPLLQFLYEHATRFDFTCRVRWKKDQVLVWDNLCTMHRAVPDYAGKFRYLTRTTVGGVRPAR
B12: SEQ ID NO: 90 (protein)
chain: MHAALSPLSQRFERIAVQPLTGVLGAEITGVDLREPLDDSTWNEILDAFHTYQVIYFPGQAITNEQHIAFSRRFGPVDPVPHLKSIEGYPEVQMIRREANESLRVIGDDWHTDSTFLDAPPAAVVMRAIDVPEHGGDTGFLSMYTAWETLSPTMQATIEGLNVVHSATRVFGSLYQAQNLRWSNTSLKVMDVDAGDRETVHPLVVTHPGSGRKGLYVNQVYCQRIEGMTDAESKPLLQFLYEHATRFDFTCRVRWKKDQVLVWDNLCTMHRAVPDYAGKFRYLTRTTVGGVRPAR

Test: Conversion rate of substrate compound A by E. coli expressing each engineered protein (HPLC, oxygenase activity)
Format: biochemical
Conditions: Reaction condition 1: bacteria cultured overnight, substrate compound A and IPTG added to react overnight
Source text: The high-throughput bacterial protein expression was achieved by cloning the synthesized gene that encodes each engineered protein into a bacterial expression vector with a C-terminal histidine tag (His-tag). The vectors were transformed into Escherichia coli (E. coli), and expression of the engineered proteins was induced. E. coli cultures were selected and cultured in centrifuge tubes overnight, meanwhile, added with substrates and IPTG, and the cultures were centrifuged to pellet the bacteria the next day. Alternatively, E. coli cultures were selected and cultured in centrifuge tubes overnight, and centrifuged to pellet the bacteria after adding substrates for reaction the next day. The supernatant of reaction solution was pipetted into a 96-well plate and the absorbance at 510 nm from 4-aminoantipyrine and potassium ferricyanide was measured by an endpoint colorimetric method to detect phenol products. Substrate reduction and product yield were measured by high performance liquid chromatography (HPLC) to detect the oxygenase activity (i.e., enzymatic activity) of the engineered proteins, and the activities of the proteins were compared by calculating conversion rates.
Conversion rate=(Peak area of initial substrate−Peak area of substrate after reaction)/Peak area of initial substrate*100%

**Q.** With B1 as the molecule, how does the Conversion rate read?
**A.** 94.1%

**Q.** For B2, which Conversion rate is on record?
**A.** 94%

**Q.** Which Conversion rate does the source give for B3 here?
**A.** 96.8%

**Q.** Which Conversion rate does the source give for B4 here?
**A.** 90%

**Q.** For B5, which Conversion rate is on record?
**A.** 95.5%

**Q.** With B6 as the molecule, how does the Conversion rate read?
**A.** 97.2%

**Q.** For B7, which Conversion rate is on record?
**A.** 92.1%

**Q.** For B8, which Conversion rate is on record?
**A.** 90%

**Q.** Which Conversion rate does the source give for B9 here?
**A.** 96.5%

**Q.** With B10 as the molecule, how does the Conversion rate read?
**A.** 94%

**Q.** For B11, which Conversion rate is on record?
**A.** 76.8%

Same assay, conditions: Reaction condition 2: bacteria cultured overnight, 8 times dose of substrate compound A of condition 1 added, react 3 hours the next day

**Q.** With B12 as the molecule, how does the Conversion rate read?
**A.** 57.5%
